Assays:
[1] = molecular target: His-tagged T2 mechanosensitive channel from Thermoplasma volcanium (Thermoplasma volcanium); assay: cross-linking; chemical crosslinking of the T2 channel in crude membranes; ladder of five bands
[2] = molecular target: T1 mechanosensitive channel from Thermoplasma volcanium (Thermoplasma volcanium); assay: cross-linking; chemical crosslinking; the sample of T1 is not told (only T2 is shown, Figure 2 D)
[3] = molecular target: T1, T2 mechanosensitive channel from Thermoplasma volcanium, tag free (Thermoplasma volcanium); assay: SPR; BIAcore 3000, 25 °C, 20 mM sodium phosphate pH 7.4, 150 mM NaCl, 0.03 % DDM; T2 channel amine-coupled on CM5 (1500 - 2000 RU); nanobodies 0.35 - 86.1 nM injected in triplicates; global fit to a simple bimolecular model, KD = kd/ka; settings: both partners purified
T1 construct: TVN0821, gene amplified from genomic DNA (DSM 4299 [GSS1*]); 297 amino acids per monomer; Cloned into pNIC28-Bsa4 (TEV site) and pET46 (Enterokinase site); In detergent (0.03 % DDM); also called T2 channel; tag free T2-channel; source: E. coli C43(DE3), purified (DDM solubilised, IMAC, tag cleavage, second IMAC, gel filtration); not shown: His-tag, N-terminal, cleaved
T1 chain: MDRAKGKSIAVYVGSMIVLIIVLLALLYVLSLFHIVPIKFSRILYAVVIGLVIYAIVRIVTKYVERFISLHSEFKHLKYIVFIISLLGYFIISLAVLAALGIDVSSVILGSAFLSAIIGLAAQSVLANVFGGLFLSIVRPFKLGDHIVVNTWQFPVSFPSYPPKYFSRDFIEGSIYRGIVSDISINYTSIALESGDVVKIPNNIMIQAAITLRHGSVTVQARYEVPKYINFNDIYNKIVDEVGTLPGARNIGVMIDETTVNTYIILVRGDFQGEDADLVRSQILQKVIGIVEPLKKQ

[4] = molecular target: His-tagged T2 mechanosensitive channel from Thermoplasma volcanium (Thermoplasma volcanium); assay: far-Western, overlay or dot blot; channel samples run on SDS-PAGE and blotted on nitrocellulose (His-tagged T1 0.1 µg, His-tagged T2 0.1 µg, tag free T2 0.01 and 0.1 µg); strips incubated with nanobody at 1 µg/ml for 1 hour, bound His-tagged nanobody detected with HisProbe-HRP; intensity ratio of lane 2 of the sample strip to the reference strip

stoichiometry N [1]	stoichiometry N [2]	Kd [3] [nM]	koff [3] [s⁻¹]	kon [3] [M⁻¹ s⁻¹]	ratio of WB intensities [4]	Molecule
5	–	–	–	–	–	His-tagged T2 mechanosensitive channel from Thermoplasma volcanium (natural protein)
–	5	–	–	–	–	T1 mechanosensitive channel from Thermoplasma volcanium (natural protein)
–	–	37	0.171	5e+06	–	nanobody 21 (VHH, pHEN6 vector; also called Nb 21; CA-number 3404; source: E. coli WK6 periplasm, purified (IMAC, gel filtration); not shown: His-tag, C-terminal, kept) VHH: QVQLQESGGGLVQPGGSLRLSCAASGRIPFITAMGWYRQAPGRQRELLATVTNSGSTNYADSVKGRFTISRDNAKNTVSLQMNSLKAEDTAVYYCNVRRLGNLSDYWGQGTQVTVSS
–	–	9.5	0.0091	960000	4.59	nanobody 3 (VHH, pHEN6 vector; also called Nb 3; CA-number 3382; source: E. coli WK6 periplasm, purified (IMAC, gel filtration); not shown: His-tag, C-terminal, kept) VHH: QVQLQESGGGLVQPGGSLRLSCAASGFTLDYYAIGWFRQTPGKEREGVSCISSSDDSTYYADSVKGRFTISRDNAKNTVYLQMNSLKPEDTAVYYCATGWACTLVAGTNGMDYWGKGTQVTVSS
–	–	0.78	0.00095	1.26e+06	16.6	nanobody 23 (VHH, pHEN6 vector; also called Nb 23; CA-number 3407; source: E. coli WK6 periplasm, purified (IMAC, gel filtration); not shown: His-tag, C-terminal, kept) VHH: QVQLQESGGGLVQPGGFLTLSCAASGSPFSFGAMGWYRQAPGKQRELVAIITRRGSTNYADSVKGRFTVSSDNAKNTVYLQMNSLKPEDTAVYYCYHQTAPVADVTWGQGTQVTVSS
–	–	15.1	0.0016	100000	14.2	nanobody 11 (VHH, pHEN6 vector; also called Nb 11; CA-number 3393; source: E. coli WK6 periplasm, purified (IMAC, gel filtration); not shown: His-tag, C-terminal, kept) VHH: QVQLQESGGGLVQAGGSLRLSCAASGGPFTFGAMGWYRQAPGKQRELVAIITKKGSTNYADSVKGRFTVSRDNAKNTVYLQMNSLKPEDTAVYYCYHQTAPVADVTWGQGTQVTVSS
–	–	7.4	0.0055	750000	1.98	nanobody 16 (VHH, pHEN6 vector; also called Nb 16; CA-number 3398; source: E. coli WK6 periplasm, purified (IMAC, gel filtration); not shown: His-tag, C-terminal, kept) VHH: QVQLQESGGGLVQPGGSLTLSCAASGSPFSFGAMGWYRQAPGKQRELVAIITSGGSTNYADSVKGRFTVSRDNAKNTVYLQMNSLKPEDTAVYYCYHQTAPVADVTWGQGTQVTVSS
–	–	4.5	0.00315	710000	6.09	nanobody 17 (VHH, pHEN6 vector; also called Nb 17; CA-number 3399; source: E. coli WK6 periplasm, purified (IMAC, gel filtration); not shown: His-tag, C-terminal, kept) VHH: QVQLQESGGGLVQPGGSLRLSCAASGSIFSINSMDWYRQAPGKQRELVATITSGGSTNYADSVKGRFTISRDNGKNTVYLQMNSLKPEDTAVYYCHAVVSTRGGYWGQGTQVTVSS
–	–	3.9	0.0036	940000	9.8	nanobody 10 (VHH, pHEN6 vector; also called Nb 10; CA-number 3391; source: E. coli WK6 periplasm, purified (IMAC, gel filtration); not shown: His-tag, C-terminal, kept) VHH: QVQLQESGGGLVQPGGSLRLSCAASGSIFSINSMDWYRQAPGKQRELVATITSGGSTNYADSVKGRFTISRDNAKNTVYLQMNSLKPEDTAVYYCHAVVATRGGYWGQGTQVTVSS
–	–	3.5	0.0036	1.03e+06	4.86	nanobody 20 (VHH, pHEN6 vector; also called Nb 20; CA-number 3403; source: E. coli WK6 periplasm, purified (IMAC, gel filtration); not shown: His-tag, C-terminal, kept) VHH: QVQLQESGGGLVQPGGSLRLSCAASGNIFGINSMDWYRQAPGKQRELVATITSGGSTNYGDSVKGRFTISRDNAKNTMYLQMNSLKPEDTAVYYCHAVLSTRGGYWGQGTQVTVSS
–	–	2.6	0.0023	880000	6.07	nanobody 14 (VHH, pHEN6 vector; also called Nb 14; CA-number 3396; source: E. coli WK6 periplasm, purified (IMAC, gel filtration); not shown: His-tag, C-terminal, kept) VHH: QVQLQESGGGLVQPGGSLRLSCAASGSIFSINSMDWYRQAPGKQRELVATITSGGSTNYADSVKGRFTISRDNAKNTVYLQMNSLKPEDTAVYLCHAVVATRGGYWGQGTQVTVSS
–	–	3.4	0.0021	620000	3.87	nanobody 4 (VHH, pHEN6 vector; also called Nb 4; CA-number 3383; source: E. coli WK6 periplasm, purified (IMAC, gel filtration); not shown: His-tag, C-terminal, kept) VHH: QVQLQESGGGLVQPGGSLRLSCAASGSIFSMNSMDWYRQAPGKQRELVATITSGGSTNYADSVKGRFTISRDNAWNTVTLQMNSLKPEDTAVYYCHAVLSTRGGYWGQGTQVTVSS
–	–	4.4	0.0081	1.82e+06	4.7	nanobody 6 (VHH, pHEN6 vector; also called Nb 6; CA-number 3387; source: E. coli WK6 periplasm, purified (IMAC, gel filtration); not shown: His-tag, C-terminal, kept) VHH: QVQLQESGGGLVQPGGSLRLSCAASGSIFSINAMGWYRQAPGKQRELVAVLTRRGSTNYADSMKGRFTISRDNTKNTVYLQMNSLKPEDTAVYYCNADLEGRPLYWGQGTQVTVSS
–	–	0.58	0.00089	1.56e+06	15	nanobody 8 (VHH, pHEN6 vector; also called Nb 8; CA-number 3389; source: E. coli WK6 periplasm, purified (IMAC, gel filtration); not shown: His-tag, C-terminal, kept) VHH: QVQLQESGGGLVQPGGSLRLSCAASGSPFSFGAMGWYRQAPGKQRELAAIITNAGSTMYADSVKGRFTVSRVNAKNTVSLQMNNLKPEDTAVYYCYAQTAPVADVTWGQGTQVTVSS
–	–	14.2	0.0278	1.98e+06	–	nanobody 1 (VHH, pHEN6 vector; also called Nb 1; CA-number 3379; source: E. coli WK6 periplasm, purified (IMAC, gel filtration); not shown: His-tag, C-terminal, kept) VHH: QVQLQESGGGLVQPGGSLRLSCAASGRIPFITAMGWYRQAPGKQRELLASVTNSEITNYADSVKGRFTISRDNARNRVYLQMNSLKPEDTAVYYCNVKRAGNLIDYWGQGTQVTVSS
–	–	1.29	0.0015	1.35e+06	17.5	nanobody 19 (VHH, pHEN6 vector; also called Nb 19; CA-number 3402; source: E. coli WK6 periplasm, purified (IMAC, gel filtration); not shown: His-tag, C-terminal, kept) VHH: QVQLQESGGGLVQPGGSLRLSCAASGSISRLNHMGWYRQPPGKQRELVAVITSGGSTDYADSVKGRFTISSGNAKNTVYLQMNSLKTEDTAVYYCNAYSEFIRPYTLWGQGTQVTVSS
–	–	0.61	0.00088	1.46e+06	15.1	nanobody 13 (VHH, pHEN6 vector; also called Nb 13; CA-number 3395; source: E. coli WK6 periplasm, purified (IMAC, gel filtration); not shown: His-tag, C-terminal, kept) VHH: QVQLQESGGGLVQPGGSLRLSCAASGSISRINHMGWYRQPPGKQRELVAVITSGGSTNYADSVKGRFTISRGNYQNTVYLQMNSLKAEDTAVYYCNAYTEFDRPYNHWGQGTQVTVSS
–	–	3.8	0.0025	650000	7.15	nanobody 12 (VHH, pHEN6 vector; also called Nb 12; CA-number 3394; source: E. coli WK6 periplasm, purified (IMAC, gel filtration); not shown: His-tag, C-terminal, kept) VHH: QVQLQESGGGLVQPGGSLRLSCVASGSIFSINAMGWYRQAPGKQRDLVAVITSRGSTNYADSVKGRFTISRDNAKNTTYLQMNSLKPEDTAVYYCNADLAAYYSGTYYDTLLYWGQGTQVTVSS
–	–	81.2	0.104	1.31e+06	–	nanobody 2 (VHH, pHEN6 vector; also called Nb 2; CA-number 3381; source: E. coli WK6 periplasm, purified (IMAC, gel filtration); not shown: His-tag, C-terminal, kept) VHH: QVQLQESGGGLVQAGGSLRLSCAASGGTFRTGGMAWFRQAPGKAREFAAGISWSGGSTDYGDSVKGRFTISRDNAKNTVYLQMNSLKPEDTAVYYCAASRRFRSGVLTRADDVDYWGKGTQVTVSS
–	–	25.4	0.0061	240000	–	nanobody 22 (VHH, pHEN6 vector; also called Nb 22; CA-number 3406; source: E. coli WK6 periplasm, purified (IMAC, gel filtration); not shown: His-tag, C-terminal, kept) VHH: QVQLQESGGGLVQAGGSLRLSCAASGGTFKSGGMAWFRQAPGKAREFAAGISWSGGSTDYEDSVKGRFTISRDNAKNTMYLQMNSLKPEDTAVYYCAAARRFRAGVVTRADDVDYWGKGTQVTVSS
–	–	1.1	0.00052	480000	15.7	nanobody 18 (VHH, pHEN6 vector; also called Nb 18; CA-number 3401; source: E. coli WK6 periplasm, purified (IMAC, gel filtration); not shown: His-tag, C-terminal, kept) VHH: QVQLQESGGGLVQPGGSLRLSCAASGSIFSINAMGWYRQAPGKQRELVAFITKVGNTNYADSVKDRFAISRDNAKNTVYLQMNSLKPEDTAVYYCYADIENSSNYKQDFYWGQGTQVTVSS
–	–	23	0.07	3e+06	–	nanobody 7 (VHH, pHEN6 vector; also called Nb 7; CA-number 3388; source: E. coli WK6 periplasm, purified (IMAC, gel filtration); not shown: His-tag, C-terminal, kept) VHH: QVQLQESGGGLVQPGGSLRLSCTASGTIFMIDAMGWYRQAPGKQRELVALINSGGSTNYADSVKGRFAISRNNARSTVYLQMNSLKPEDTAVYYCNADTWNGVRRDVYWGQGTQVTVSS
–	–	0.057	0.00011	1.96e+06	25.7	nanobody 15 (VHH, pHEN6 vector; also called Nb 15; CA-number 3397; source: E. coli WK6 periplasm, purified (IMAC, gel filtration); not shown: His-tag, C-terminal, kept) VHH: QVQLQESGGGLVQPGGSLRLSCAASGSISTINHMGWYRQPPGKQRELVAVITRSGSTNYADSVKGRFTISRGNVKNTVYLQMNSVKAEDTAVYYCNAYTEFDRPYNHWGQGTQVTVSS
–	–	48.3	0.15	3.1e+06	–	nanobody 9 (VHH, pHEN6 vector; also called Nb 9; CA-number 3390; source: E. coli WK6 periplasm, purified (IMAC, gel filtration); not shown: His-tag, C-terminal, kept) VHH: QVQLQESGGGLVQPGGSLRLSCAASGSIFGINAMGWYRRPPGKQRELVAVITSGGSTNYADSVKGRFTISRGNAKNTVYLQMNSLKAEDTAVYYCNAYTDFVRPYNHWGQGTQVTVSS
